# Data from US6541450B1, “Parathyroid hormone analogues for the treatment of osteoporosis” (National Research Council of Canada, priority 1994, dated 2003).
# Entries after “also recorded” stand apart in the source; their conditions may differ. Like-named read-outs stand apart in the source and are kept apart here. Where a SMILES comes first, the peptide text is derived from it. Bridges are numbered along the chain shown (N, C = ends). Where no end group is shown, it is not given here.
# B1: hPTH-(1-84) (protein, UniProt P01270 32-115, looked up)
# Parathyroid hormone: SVSEIQLMHNLGKHLNSMERVEWLRKKLQDVHNFVALGAPLAPRDAGSQRPRKKEDNVLVESHEKSLGEADKADVNVLTKAKSQ
# modifications: Parathyroid hormone
# notes: full-length human parathyroid hormone, AC/PLC-stimulating
# B2: [Leu^27]cyclo(Glu^22-Lys^26)-hPTH-(1-31)-NH2 (peptide)
# peptide: SVSEIQLMHNLGKHLNSMERVEWLRKLLQDV-NH2
# modifications: lactam 22-26; N-terminus assumed
# SMILES: CC[C@H](C)[C@H](NC(=O)[C@H](CCC(=O)O)NC(=O)[C@H](CO)NC(=O)[C@@H](NC(=O)[C@@H](N)CO)C(C)C)C(=O)N[C@@H](CCC(N)=O)C(=O)N[C@@H](CC(C)C)C(=O)N[C@@H](CCSC)C(=O)N[C@@H](Cc1c[nH]cn1)C(=O)N[C@@H](CC(N)=O)C(=O)N[C@@H](CC(C)C)C(=O)NCC(=O)N[C@@H](CCCCN)C(=O)N[C@@H](Cc1c[nH]cn1)C(=O)N[C@@H](CC(C)C)C(=O)N[C@@H](CC(N)=O)C(=O)N[C@@H](CO)C(=O)N[C@@H](CCSC)C(=O)N[C@@H](CCC(=O)O)C(=O)N[C@@H](CCCNC(=N)N)C(=O)N[C@H](C(=O)N[C@H]1CCC(=O)NCCCC[C@@H](C(=O)N[C@@H](CC(C)C)C(=O)N[C@@H](CC(C)C)C(=O)N[C@@H](CCC(N)=O)C(=O)N[C@@H](CC(=O)O)C(=O)N[C@H](C(N)=O)C(C)C)NC(=O)[C@H](CCCNC(=N)N)NC(=O)[C@H](CC(C)C)NC(=O)[C@H](Cc2c[nH]c3ccccc23)NC1=O)C(C)C
# B3: [Leu^27]cyclo(Lys^26-Asp^30)-hPTH-(1-31)-NH2 (peptide)
# peptide: SVSEIQLMHNLGKHLNSMERVEWLRKLLQDV-NH2
# modifications: lactam 26-30; N-terminus assumed
# SMILES: CC[C@H](C)[C@H](NC(=O)[C@H](CCC(=O)O)NC(=O)[C@H](CO)NC(=O)[C@@H](NC(=O)[C@@H](N)CO)C(C)C)C(=O)N[C@@H](CCC(N)=O)C(=O)N[C@@H](CC(C)C)C(=O)N[C@@H](CCSC)C(=O)N[C@@H](Cc1c[nH]cn1)C(=O)N[C@@H](CC(N)=O)C(=O)N[C@@H](CC(C)C)C(=O)NCC(=O)N[C@@H](CCCCN)C(=O)N[C@@H](Cc1c[nH]cn1)C(=O)N[C@@H](CC(C)C)C(=O)N[C@@H](CC(N)=O)C(=O)N[C@@H](CO)C(=O)N[C@@H](CCSC)C(=O)N[C@@H](CCC(=O)O)C(=O)N[C@@H](CCCNC(=N)N)C(=O)N[C@H](C(=O)N[C@@H](CCC(=O)O)C(=O)N[C@@H](Cc1c[nH]c2ccccc12)C(=O)N[C@@H](CC(C)C)C(=O)N[C@@H](CCCNC(=N)N)C(=O)N[C@H]1CCCCNC(=O)C[C@@H](C(=O)N[C@H](C(N)=O)C(C)C)NC(=O)[C@H](CCC(N)=O)NC(=O)[C@H](CC(C)C)NC(=O)[C@H](CC(C)C)NC1=O)C(C)C
# What was measured:
# [1] = target: T1, adenylyl cyclase, ROS 17/2 cells (Rattus norvegicus, UniProt P25961); experiment: Adenylyl cyclase stimulation, [3H]-cyclic AMP production in ROS 17/2 cells; format: cell-based
# T1 sequence (P25961 27-591): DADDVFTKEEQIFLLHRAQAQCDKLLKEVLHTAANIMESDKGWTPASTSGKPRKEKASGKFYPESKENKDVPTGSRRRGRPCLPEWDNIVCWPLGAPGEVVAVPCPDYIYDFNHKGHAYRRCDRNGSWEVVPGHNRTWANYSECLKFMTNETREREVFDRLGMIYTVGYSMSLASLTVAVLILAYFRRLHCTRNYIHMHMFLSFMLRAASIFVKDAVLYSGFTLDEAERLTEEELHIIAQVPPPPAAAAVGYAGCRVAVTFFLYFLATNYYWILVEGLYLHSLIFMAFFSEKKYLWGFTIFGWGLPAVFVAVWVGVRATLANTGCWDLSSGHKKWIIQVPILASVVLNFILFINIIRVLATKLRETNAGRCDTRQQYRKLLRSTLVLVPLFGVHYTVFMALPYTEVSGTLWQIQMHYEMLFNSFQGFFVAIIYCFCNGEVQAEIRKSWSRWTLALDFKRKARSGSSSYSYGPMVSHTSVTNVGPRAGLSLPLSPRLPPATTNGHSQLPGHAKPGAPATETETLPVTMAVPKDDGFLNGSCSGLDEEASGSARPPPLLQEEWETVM
# [2] = tested on: anesthetized female Sprague-Dawley rats; experiment: Hypotensive effect, tail artery pressure in anaesthetized rats; details: for time to reduction of tail artery pressure: injection into a femoral vein
# Description: Female Sprague-Dawley rats (weighing over 290 g) were anaesthetized with intraperitoneally injected sodium pentobarbital (65 mg/kg body weight). Rectal temperature was monitored with a YS1402 thermistor (Yellow Springs Instrument Co., Inc. Yellow Springs, Ohio) and maintained between 36.0 and 38.5° C. throughout the experiment. Ear pinna temperature was also monitored using a YSi banjo thermistor. The tail artery was exposed to cannulated with a Jelco 25-gIV catheter (Johnson and Johnson Medical Inc., Arlington, Tex.) and connected to a Statham pressure transducer, the signals from which were recorded digitally with a Biopac Systems MP100 Monitor (Harvard Instruments, Saint Laurent, QC, Canada). For intravenous injection of PTH or one of its fragments, a femoral vein was also exposed. After surgery, the rat was allowed to stabilize for 8 min after which PTH or one of its fragments (dissolved in acidified saline containing 0.001 N HCl) was injected into the femoral vein or under the skin of the abdomen. Data were collected for 12 min after intravenous injection or for 22 min after subcutaneous injection.
# [3] = tested on: ovariectomized (OVX) Sprague-Dawley rats; experiment: Anabolic activity in ovariectomized rat model, injections from 2nd to 8th week after OVX; format: in vivo; details: subcutaneously injected
# Description: A full description of the protocol is given in Rixon et al, J. Bone & Mineral Research 9, 1179-1189, 1994 and Whitfield et al Calcif. Tissue Int. 58, 81-87, 1996 incorporated herein by reference. Normal, Sham-OVX (ovariectomized), and OVX Sprague-Dawley rats (3 months-old; 255-260 g) were purchased from
# Charles River Laboratories (St. Constant, QC). The rats were randomized into groups of 8 animals which received Purina rat chow and water ad libitum. There were no unscheduled deaths. The animals received 6, once-daily subcutaneous injections/week starting at the end of the second week after OVX, and ending at the end of the 8th week after OVX (i.e., 36 injections). Eight Sham-OVX and 8 OVX controls rats received 36 injections of vehicle (0.15 M NaCl containing 0.001N HCl) while 8 OVX rats received 0.6 nmole of fragment in vehicle/100 g of body weight). At the end of the 8th week after OVX, femurs were removed isolated, cleaned, and cut in half at mid-diaphysis and the proximal half was discarded. After removing the epiphysis, each half-femur was split lengthwise into two parts and the bone marrow was flushed out.
# The bone-building potencies of the fragments were assessed from the changes in the mean thicknesses (area/perimeter) of the trabeculae in the distal half-femurs from the variously treated animals. To measure mean trabecular thickness, the two demineralized half-femurs from each rat were dehydrated and embedded in paraffin. Longitudinal, 10-μm sections from the middle plane of each bone were cut and then strained with Sanderson's rapid bone stain (Surgipath Medical Industries, Inc., Winnipeg, MB, Canada). The mean trabecular thickness was measured using a M4 imaging system and bone morphometric software from Imaging Research Inc., (St. Catherines, ON, Canada).
# The results are further presented in the form of a bar graph in FIG. 7.
# PTH receptor [4] = target: T2, PTH receptor (rat (ROS 17/2 rat osteosarcoma cell …, UniProt P25961)); experiment: cell-based or functional assay
# PTH receptor [5] = target: T2, PTH receptor; experiment: cell-based or functional assay; remark: listed apart in the source
# [6] = intravenous, 0.8 nmol/100 g of body weight
molecule,measurement,setting,value
"CC[C@H](C)[C@H](NC(=O)[C@H](CCC(=O)O)NC(=O)[C@H](CO)NC(=O)[C@@H](NC(=O)[C@@H](N)CO)C(C)C)C(=O)N[C@@H](CCC(N)=O)C(=O)N[C@@H](CC(C)C)C(=O)N[C@@H](CCSC)C(=O)N[C@@H](Cc1c[nH]cn1)C(=O)N[C@@H](CC(N)=O)C(=O)N[C@@H](CC(C)C)C(=O)NCC(=O)N[C@@H](CCCCN)C(=O)N[C@@H](Cc1c[nH]cn1)C(=O)N[C@@H](CC(C)C)C(=O)N[C@@H](CC(N)=O)C(=O)N[C@@H](CO)C(=O)N[C@@H](CCSC)C(=O)N[C@@H](CCC(=O)O)C(=O)N[C@@H](CCCNC(=N)N)C(=O)N[C@H](C(=O)N[C@@H](CCC(=O)O)C(=O)N[C@@H](Cc1c[nH]c2ccccc12)C(=O)N[C@@H](CC(C)C)C(=O)N[C@@H](CCCNC(=N)N)C(=O)N[C@H]1CCCCNC(=O)C[C@@H](C(=O)N[C@H](C(N)=O)C(C)C)NC(=O)[C@H](CCC(N)=O)NC(=O)[C@H](CC(C)C)NC(=O)[C@H](CC(C)C)NC1=O)C(C)C [compound 4, [Leu^27]cyclo(Lys^26-Asp^30)-hPTH-(1-31)-NH2] (H-SVSEIQLMHNLGKHLNSMERVEWLRKLLQDV-NH2; lactam 26-30; N-terminus assumed)",EC50,"[1]; ROS 17/2 cells, concentration for half-maximal increase in AC activity, read-out: Adenylyl Cyclase (EC50)",3 nM
same,EC50,"[1]; ROS cell line, read-out: EC50, AC-stimulating activity",17 ± 3.3 nM
same,"hypotensive action, in words",[2]; subcutaneous injection,enhanced hypotensive effects
"CC[C@H](C)[C@H](NC(=O)[C@H](CCC(=O)O)NC(=O)[C@H](CO)NC(=O)[C@@H](NC(=O)[C@@H](N)CO)C(C)C)C(=O)N[C@@H](CCC(N)=O)C(=O)N[C@@H](CC(C)C)C(=O)N[C@@H](CCSC)C(=O)N[C@@H](Cc1c[nH]cn1)C(=O)N[C@@H](CC(N)=O)C(=O)N[C@@H](CC(C)C)C(=O)NCC(=O)N[C@@H](CCCCN)C(=O)N[C@@H](Cc1c[nH]cn1)C(=O)N[C@@H](CC(C)C)C(=O)N[C@@H](CC(N)=O)C(=O)N[C@@H](CO)C(=O)N[C@@H](CCSC)C(=O)N[C@@H](CCC(=O)O)C(=O)N[C@@H](CCCNC(=N)N)C(=O)N[C@H](C(=O)N[C@@H](CCC(=O)O)C(=O)N[C@@H](Cc1c[nH]c2ccccc12)C(=O)N[C@@H](CC(C)C)C(=O)N[C@@H](CCCNC(=N)N)C(=O)N[C@@H](CCCCN)C(=O)N[C@@H](CCCCN)C(=O)N[C@@H](CC(C)C)C(=O)N[C@@H](CCC(N)=O)C(=O)N[C@@H](CC(=O)O)C(N)=O)C(C)C [peptide 6, hPTH-(1-30)-NH2] (H-SVSEIQLMHNLGKHLNSMERVEWLRKKLQD-NH2)","AC-stimulating activity, comparison in words",[1],stimulates AC almost as strongly as hPTH-(1-31)-NH and hPTH-(1-34)
same,"osteogenic activity, in words",[3],does not stimulate bone formation
same,time to reduction of tail artery pressure,[2],about 1 minute
same,"hypotensive action, in words",[2]; intravenous injection,potently hypotensive
same,"hypotensive action, in words",[2]; subcutaneous injection,reduces blood pressure as much as hPTH-(1-31)-NH2
same,time for tail artery pressure to fall to its minimum,[2]; subcutaneous injection,13.8 ± 2.3 min
same,total blood pressure drop versus other analogues,"[2]; subcutaneously or intravenously, 0.8 nmol/100 g of body weight",not significantly different (p>0.05)
SVSEIQLMHNLGKHLNSMERVEWLRKKLQDV-NH2 (lactam 27-30) [cyclo(Lys^27-Asp^30)-hPTH-(1-31)-NH2],"adenylyl cyclase stimulation, EC50",PTH receptor [4],40.3 nM
same,Adenylyl Cyclase (EC50),PTH receptor [5],40 nM
B1,"osteogenic activity, in words",[3],equally osteogenic; also recorded: strongly osteogenic
same,time to reduction of tail artery pressure,[2],about 1 minute
same,"hypotensive action, in words",[2]; intravenous injection,no significant difference
same,reduction of tail artery pressure,[2]; [6],43.2±5.8 mm Hg
same,time to maximum drop in tail artery pressure,[2]; [6],0.9 ± 0.08 min
same,time for tail artery pressure to fall to its minimum,[2]; subcutaneous injection,needs the same amount of time to reduce the blood pressure
B2,"AC-stimulating activity, EC50",PTH receptor [4],3.3 nM
same,Adenylyl Cyclase (EC50),PTH receptor [5],3 nM
SVSEIQLMHNLGKHLNSMERVEWLRKLLQDV-NH2 [[Leu^27]-hPTH-(1-31)-NH2],"AC activity in the ROS cell line, EC50",PTH receptor [4],11.5 nM
B3,"adenylyl cyclase stimulation, EC50",PTH receptor [4],17 nM
